Tests used:
Sox2;Pax6 = Sox2;Pax6 (Mus musculus (B6);Mus musculus (B6), UniProt P48432;P63015 1-319;1-422, |); test: EMSA; supershift with anti-Pax6; EMSA: 20 ng GST-fusion protein, 20 mM HEPES pH 7.8, 45 mM KCl, 10 mM NaCl, 1 mM EDTA, 1 mM DTT, 10% glycerol, 0.2 ug/uL BSA, 0.1% NP-40, 50 ng poly-dIdC; RT 30; details: protein: recombinant;recombinant; tags: GST (N-terminal, pGEX-6P-1);GST (N-terminal, pGEX-6P-1); copies: 1;1; label: 32P
Sox2;Brn2 = Sox2;Brn2 (Mus musculus (B6);Mus musculus (B6), UniProt P48432;P31360 1-319;1-445, |); test: EMSA; supershift with anti-Brn2; EMSA: 20 ng GST-fusion protein, 20 mM HEPES pH 7.8, 45 mM KCl, 10 mM NaCl, 1 mM EDTA, 1 mM DTT, 10% glycerol, 0.2 ug/uL BSA, 0.1% NP-40, 50 ng poly-dIdC; RT 30; details: protein: recombinant;recombinant; tags: GST (N-terminal, pGEX-6P-1);GST (N-terminal, pGEX-6P-1); copies: 1;1; label: 32P
Chain of Sox2;Brn2 (P48432 whole entry, chain 1 of 2, the tested form may be a part): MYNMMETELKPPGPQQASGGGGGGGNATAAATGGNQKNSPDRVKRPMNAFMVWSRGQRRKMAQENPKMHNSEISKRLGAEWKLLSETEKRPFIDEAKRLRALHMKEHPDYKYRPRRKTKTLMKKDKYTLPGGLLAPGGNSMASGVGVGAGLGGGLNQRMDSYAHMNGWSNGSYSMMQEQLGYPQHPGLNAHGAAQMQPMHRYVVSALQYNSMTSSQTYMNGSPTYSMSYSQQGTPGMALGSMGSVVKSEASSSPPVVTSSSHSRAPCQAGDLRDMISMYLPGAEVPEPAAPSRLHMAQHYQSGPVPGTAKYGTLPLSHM
Chain of Sox2;Brn2 (P31360 whole entry, chain 2 of 2, the tested form may be a part): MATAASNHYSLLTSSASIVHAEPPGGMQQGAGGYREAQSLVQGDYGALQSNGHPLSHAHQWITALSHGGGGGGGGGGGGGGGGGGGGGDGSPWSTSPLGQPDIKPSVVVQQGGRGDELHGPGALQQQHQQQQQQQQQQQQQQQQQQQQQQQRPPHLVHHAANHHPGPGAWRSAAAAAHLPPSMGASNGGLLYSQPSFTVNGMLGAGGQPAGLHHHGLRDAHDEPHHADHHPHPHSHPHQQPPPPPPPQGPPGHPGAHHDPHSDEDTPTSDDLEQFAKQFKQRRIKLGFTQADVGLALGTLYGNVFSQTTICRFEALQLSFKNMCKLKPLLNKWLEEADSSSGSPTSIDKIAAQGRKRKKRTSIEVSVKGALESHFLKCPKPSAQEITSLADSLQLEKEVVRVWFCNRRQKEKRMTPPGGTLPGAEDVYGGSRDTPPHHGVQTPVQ

Chain of Sox2;Pax6 (P48432 whole entry, chain 1 of 2, the tested form may be a part): as the sequence (P48432 whole entry, chain 1 of 2, the tested form may be a part) above
Chain of Sox2;Pax6 (P63015 whole entry, chain 2 of 2, the tested form may be a part): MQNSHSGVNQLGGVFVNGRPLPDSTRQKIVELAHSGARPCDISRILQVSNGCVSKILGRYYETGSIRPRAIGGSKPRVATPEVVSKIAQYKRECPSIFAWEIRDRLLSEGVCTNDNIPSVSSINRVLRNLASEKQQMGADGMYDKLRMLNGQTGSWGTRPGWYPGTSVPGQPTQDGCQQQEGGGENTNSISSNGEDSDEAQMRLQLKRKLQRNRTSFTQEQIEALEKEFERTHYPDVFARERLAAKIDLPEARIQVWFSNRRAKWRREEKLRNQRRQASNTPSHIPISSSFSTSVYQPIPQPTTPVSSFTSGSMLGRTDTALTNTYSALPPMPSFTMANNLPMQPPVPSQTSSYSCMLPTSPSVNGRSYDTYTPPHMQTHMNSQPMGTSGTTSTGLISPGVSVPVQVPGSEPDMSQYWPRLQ

Binder	binding result (Sox2;Pax6)	binding result (Sox2;Brn2)
Sox2-Pax6 consensus probe (dsDNA) DNA 1: GGGAAATATTCATTGTTGTTGCTCACCTACCATGGA DNA 2: TCCATGGTAGGTGAGCAACAACAATGAATATTTCCC	binds	–
Sox2-Brn2 consensus probe (dsDNA) DNA 1: GGGTAGTGTGGACAAAAGGCAATAATTAGCATGAGAATC DNA 2: GATTCTCATGCTAATTATTGCCTTTTGTCCACACTACCC	–	binds

— publication PMC3713010, “Sox2 Transcriptionally Regulates Pqbp1, an Intellectual Disability-Microcephaly Causative Gene, in Neural Stem Progenitor Cells”
